Article PMC9122904, “Insights into the client protein release mechanism of the ATP-independent chaperone Spy” (Nature Communications, 2022)
Substitutions are numbered along the chain they refer to. Names and notes keep the numbering of the source.

What was measured:
Assay in all cases: BLI; Octet RED96; client biotinylated and loaded on streptavidin sensors; Spy or Spy variant in solution at 0.25, 0.5, 1, 1.5 and 2 μM; 40 mM HEPES, 150 mM NaCl, pH 7.5; Kd calculated as koff/kon
Details in all cases: both partners purified
Spy_(R43D) = biological target: T1, Spy_(R43D) (UniProt P77754 24-161, R43D)
T1 construct: source: E. coli BL21 (DE3), purified (Ni-NTA, cation exchange, SEC); not shown: His6, N-terminal, cleaved; SUMO, N-terminal, cleaved
T1 sequence (looked up): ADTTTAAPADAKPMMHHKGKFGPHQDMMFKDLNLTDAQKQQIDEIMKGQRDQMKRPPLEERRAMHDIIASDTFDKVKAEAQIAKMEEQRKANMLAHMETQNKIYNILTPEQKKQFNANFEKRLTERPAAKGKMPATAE
Method in brief: (§1)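 Client proteins were biotinylated with EZ-link NHS-biotin at a 1:1 molar ratio, loaded onto streptavidin sensors, and measured by biolayer interferometry on an Octet RED96. The loaded sensors were dipped into 40 mM HEPES, 150 mM NaCl, pH 7.5 holding the analyte protein at 0.25, 0.5, 1, 1.5 or 2 μM, then moved to buffer without it. Fitting the wavelength-shift association and dissociation curves in SigmaPlot 12.0 gave the observed association rate and koff, kon was taken from the observed rate plotted against analyte concentration, and Kd was calculated as koff/kon.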

Spy D26K R43D = biological target: T2, Spy D26K R43D (UniProt P77754 24-161, D26K | R43D)
T2 construct: source: E. coli BL21 (DE3), purified (Ni-NTA, cation exchange, SEC); not shown: His6, N-terminal, cleaved; SUMO, N-terminal, cleaved
T2 sequence (looked up): T1 sequence (looked up) with D26K
Method in brief: as §1

Spy_(K54D R55D) = biological target: T3, Spy_(K54D R55D) (UniProt P77754 24-161, K54D | R55D)
T3 construct: source: E. coli BL21 (DE3), purified (Ni-NTA, cation exchange, SEC); not shown: His6, N-terminal, cleaved; SUMO, N-terminal, cleaved
T3 sequence (looked up): T1 sequence (looked up) with D43R, K54D, R55D
Method in brief: as §1

Spy_(R61D R62D) = biological target: T4, Spy_(R61D R62D) (UniProt P77754 24-161, R61D | R62D)
T4 construct: source: E. coli BL21 (DE3), purified (Ni-NTA, cation exchange, SEC); not shown: His6, N-terminal, cleaved; SUMO, N-terminal, cleaved
T4 sequence (looked up): T1 sequence (looked up) with D43R, R61D, R62D
Method in brief: as §1

Spy_(D26K R61D R62D) = biological target: T5, Spy_(D26K R61D R62D) (UniProt P77754 24-161, D26K | R61D | R62D)
T5 construct: source: E. coli BL21 (DE3), purified (Ni-NTA, cation exchange, SEC); not shown: His6, N-terminal, cleaved; SUMO, N-terminal, cleaved
T5 sequence (looked up): T1 sequence (looked up) with D26K, D43R, R61D, R62D
Method in brief: as §1

Spy_(R89D) = biological target: T6, Spy_(R89D) (UniProt P77754 24-161, R89D)
T6 construct: source: E. coli BL21 (DE3), purified (Ni-NTA, cation exchange, SEC); not shown: His6, N-terminal, cleaved; SUMO, N-terminal, cleaved
T6 sequence (looked up): T1 sequence (looked up) with D43R, R89D
Method in brief: as §1

Spy_(H96D) = biological target: T7, Spy_(H96D) (UniProt P77754 24-161, H96D)
T7 construct: source: E. coli BL21 (DE3), purified (Ni-NTA, cation exchange, SEC); not shown: His6, N-terminal, cleaved; SUMO, N-terminal, cleaved
T7 sequence (looked up): T1 sequence (looked up) with D43R, H96D
Method in brief: as §1

Spy D26K H96D = biological target: T8, Spy D26K H96D (UniProt P77754 24-161, D26K | H96D)
T8 construct: source: E. coli BL21 (DE3), purified (Ni-NTA, cation exchange, SEC); not shown: His6, N-terminal, cleaved; SUMO, N-terminal, cleaved
T8 sequence (looked up): T1 sequence (looked up) with D26K, D43R, H96D
Method in brief: as §1

B1: Im7 H40W L53A I54A (natural protein)
chain: MELKNSISDYTEAEFVQLLKEIEKENVAATDDVLDVLLEWFVKITEHPDGTDAAYYPSDNRDDSPEGIVKEIKEWRAANGKPGFKQG
modifications: biotin (EZ-link NHS-biotin, 1:1 molar ratio of biotin to protein)
notes: Im7 (colicin E7 immunity protein) with H40W L53A I54A; Spy was made with an N-terminal His6-SUMO tag that was cleaved; also called Im7AAW; partially folded client; source: purified by a similar procedure to Spy
koff (Spy_(R43D)): 0.533 s⁻¹ | koff (Spy D26K R43D): 0.202 s⁻¹ | koff (Spy_(K54D R55D)): 0.0743 s⁻¹ | koff (Spy_(R61D R62D)): 0.0727 s⁻¹ | koff (Spy_(D26K R61D R62D)): 0.475 s⁻¹ | koff (Spy_(R89D)): 0.105 s⁻¹ | koff (Spy_(H96D)): 0.42 s⁻¹ | koff (Spy D26K H96D): 0.172 s⁻¹
